We go through 1 molecule from publication PMC4652764, “The La-related protein 1-specific domain repurposes HEAT-like repeats to directly bind a 5′TOP sequence”.

Common to all, as to details: protein: recombinant; tags: His6-MBP removed by TEV; glycine linker remnant; label: 5'-32P (EMSA, probing)
On the technique in general: Mobility shift assays separate free from complexed probe on a gel.

For one series, the target named is DM15 R840E (human, UniProt Q6PKG0 873-1023, R917E). As to the kind of experiment: EMSA; up to 30 uM protein; EMSA: 20 mM Tris-HCl pH 8, 150 mM NaCl, 10% glycerol, 1 mM DTT, 0.5 ug tRNA, 1 ug BSA, <2 nM RNA, 30 min on ice, native 0.5x TBE gel at 4 C.
The next series has as its target DM15 Y883A (human, UniProt Q6PKG0 873-1023, Y960A). The series is described as above.
The target in a further series is DM15 GQ908-909AA (human, UniProt Q6PKG0 873-1023, G985A;Q986A). As to the kind of experiment: EMSA; up to 150 uM; two-state shift like WT, more protein needed for maximum shift; EMSA: 20 mM Tris-HCl pH 8, 150 mM NaCl, 10% glycerol, 1 mM DTT, 0.5 ug tRNA, 1 ug BSA, <2 nM RNA, 30 min on ice, native 0.5x TBE gel at 4 C.

B1: RPS6-20mer (ssRNA)
RNA: CCUCUUUUCCGUGGCGCCUC
Take B1: the binding result was “no binding” with DM15 R840E, “no binding” in the series with DM15 Y883A and “binds” with DM15 GQ908-909AA.
